Laboratory results: US20240425587A1 (Alector, published 2024)

B1: E8 (antibody, V domains shown)
VH: QVQLVQSGAEVKKPGASVKVSCKASGYAFTNYDINWVRQAPGQGLEWLGWINPYSGDTNYAQKLQGRVTMTRDTSTSTVYMELSSLRSEDTAVYYCTIPSSYGEYYYYYMDVWGKGTTVTVSS
VL: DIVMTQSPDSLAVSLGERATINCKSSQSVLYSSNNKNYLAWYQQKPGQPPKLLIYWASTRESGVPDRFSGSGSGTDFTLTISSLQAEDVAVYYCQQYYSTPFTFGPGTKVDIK
notes: phage campaign
B2: E1 (antibody, V domains shown)
VH: EVQLVESGGGLVQPGESLKLSCESNEYEFPSHDMSWVRKTPEKRLELVAAINSDGGSTYYPDTMERRFIISRDNTKKTLYLQMSSLRSEDTALYYCARQLMGTGAMDYWGQGTSVTVSS
VL: DIQMTQSSSYLSVSLGGRVTITCKASDHINNWLAWYQQKPGNAPRLLISGATSLETGVPSRFSGSGSGKDYTLSITSLQTEDVATYYCQQYWSTPYTFGGGTKLEIK
notes: second hybridoma campaign
B3: E2 (antibody, V domains shown)
VH: EVQLQESGPSLVKPSQTLSLTCSVTGDSITSGYWNWIRKFPGDKLEYMGYISYTGTTYYNPSLKSRVSITRDTSKNQYYLQLHSVTTEDTATYYCARYPYGNFPFDYWGQGTTLTVSS
VL: SIVMTQTPKFLLVSAGDRVTITCKASQSVRNDVAWYQQRPGQSPKLLIFYASSRYIGAPDRFTGSGYGTDFTFTISTVQAEDLAVYFCQQDYSSPYTFGGGTTLEIK
notes: second hybridoma campaign
B4: E3 (antibody, V domains shown)
VH: QAYLQQSGAELVRSGASVKMSCKASGNTFTYYNLHWIRQTPGQGLEWIGYIFPGNGDAYYNQNFKGKATLTADTSSSTAYMQISSLTFEDSAVYFCARSPHYYGSGFDYWGQGTPLTVSS
VL: DIQMTQSSSYLSVSLGGGVTITCKASDHINNWLAWYQQKPGNAPRLLISGATSLETGVPSRFSGSGSGKDYTLSITSLQTEDVATYYCQQYWSTPWTFGGGTKLEIK
notes: second hybridoma campaign
B5: E9 (antibody, V domains shown)
VH: QVQLVQSGAEVKKPGASVKVSCKASGGTFSSYSINWVRQAPGQGLEWMGWINPHSGATKYAERFQGRVTMTRDTSTSTVYMELSSLRSEDTAVYYCASAEEPYDILTGYYGGDAFDIWGQGTMVTVSS
VL: DIQMTQSPSSLSASVGDRVTITCRASQSISKYLNWYQQKPGKAPKLLIYDASNLQAGVPSRFSGSGSGTDFTLTISSLQPEDFATYYCQQANSFPYTFGQGTKLEIK
notes: phage campaign
B6: A11 (antibody, V domains shown)
VH: QVQLVQSGAEVKKPGASVKVSCKASGYTFTSYYMHWVRQAPGQGLEWMGWINPNNGDTNYAQKFQGRVTMTRDTSTSTVYMELSSLRSEDTAVYYCARAGYFDWLLDYYGMDVWGQGTTVTVSS
VL: DIVMTQSPLSLPVTPGEPASISCRSSQSLLHSNGYNYLDWYLQKPGQSPQLLIYDASNLETGVPDRFSGSGSGTDFTLKISRVEAEDVGVYYCMQALQTPFGPGTKVDIK
notes: phage campaign; same VH/VL as E17
B7: E11 (antibody, V domains shown)
VH: QVQLVQSGAEVKKPGSSVKVSCKASGGTFSSYDISWVRQAPGQGLEWMGGIIPTFVTPKYAQKFQGRVTITADESTSTAYMELSSLRSEDTAVYYCAREGPKQLEEYYYYYMDVWGKGTTVTVSS
VL: DIQMTQSPSSLSASVGDRVTITCRATQAISNSLAWYQQKPGKAPKLLIYAASYLQSGVPSRFSGSGSGTDFTLTISSLQPEDFATYYCQQAYSFPWTFGQGTKLEIK
notes: phage campaign
B8: E19 (antibody, V domains shown)
VH: QVQLVQSGAEVKKPGSSVKVSCKASGYLFSDYAMNWVRQAPGQGLEWVGWIIPNSGGTKFAQTFQGRVTITADESTSTAYMELSSLRSEDTAVYYCAREHGVVPADHYYYGMDVWGQGTTVTVSS
VL: EIVMTQSPATLSVSPGERATLSCRASQSISSSYLAWYQQKPGQAPRLLIYGASTRATGIPARFSGSGSGTEFTLTISSLQSEDFAVYYCQQYGRFPWTFGQGTKVEIK
notes: phage campaign; same VH/VL as A13
B9: E14 (antibody, V domains shown)
VH: QVQLVQSGAEVKKPGSSVKVSCKASGYTFTNYDINWVRQAPGQGLEWMGGIIPIFGTANYAQKFQGRVTITADESTSTAYMELSSLRSEDTAVYYCTNGVGAGWFDLWGRGTLVTVSS
VL: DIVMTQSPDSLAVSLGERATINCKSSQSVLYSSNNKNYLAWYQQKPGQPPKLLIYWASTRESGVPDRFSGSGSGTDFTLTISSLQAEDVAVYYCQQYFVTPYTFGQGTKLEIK
notes: phage campaign
B10: A13 (antibody, V domains shown)
VH: QVQLVQSGAEVKKPGSSVKVSCKASGYLFSDYAMNWVRQAPGQGLEWVGWIIPNSGGTKFAQTFQGRVTITADESTSTAYMELSSLRSEDTAVYYCAREHGVVPADHYYYGMDVWGQGTTVTVSS
VL: EIVMTQSPATLSVSPGERATLSCRASQSISSSYLAWYQQKPGQAPRLLIYGASTRATGIPARFSGSGSGTEFTLTISSLQSEDFAVYYCQQYGRFPWTFGQGTKVEIK
notes: phage campaign; same VH/VL as E19
B11: E16 (antibody, V domains shown)
VH: QVQLKESGPGLVAPSQSLSITCTVSGFSLSGYGVNWVRHLPGKGLEWLGMIWGDGHTDYNSALKSRLSISKDNSKSQVFLKMNSLQTDDTARYYCARDPRFYYGSGPYWYFDVWGAGTTVTVSS
VL: DIVMTQSQKFMSTSVGDRVNITCKASQNVGTAVAWYQQKPGQSPKLLIYSASNRYTGVPDRFTGSGSGTDFTLTISNMQSEDLADYFCQQYSSYPLTFAVGTKLELK
notes: B-cell cloning campaign (mice)
B12: E6 (antibody, V domains shown)
VH: QVQLVQSGAEVKKPGASVKVSCKASGGTFSSYAISWVRQAPGQGLEWMGWINPNSGGTNFAQKFQGRVTMTRDTSTSTVYMELSSLRSEDTAVYYCARGSGSYPLDYWGRGTLVTVSS
VL: DIQMTQSPSSLSASVGDRVTITCRASQDISTWLAWYQQKPGKAPKLLIYDASSLESGVPSRFSGSGSGTDFTLTISSLQPEDFATYYCQQTYSAPYTFGQGTKLEIK
notes: phage campaign
B13: E7 (antibody, V domains shown)
VH: EVQLLESGGGLVKPGGSLRLSCAASGFTFSSYWMSWVRQAPGKGLEWVSAISGSGGSTYYADSVKGRFTISRDDSKNTLYLQMNSLKTEDTAVYYCARHEEVTMVRGVIFAGGITNWGQGTTVTVSS
VL: EIVMTQSPATLSVSPGERATLSCRASESVTSSYLAWYQQKPGQAPRLLIYGASTRATGIPARFSGSGSGTEFTLTISSLQSEDFAVYYCQQYGSSPLTFGGGTKVEIK
notes: phage campaign

Assays:
[1] = target: cynomolgus PILRA, ectopically expressed on 293 cells (cynomolgus monkey); assay: flow cytometry, 293 cells expressing target
Protocol: (§1) Briefly, conditioned media containing antibodies were incubated with 293 cells for 30 min at 4° C., washed twice, and then detected with anti-mouse IgG Alexa 647.

[2] = target: T1, murine PILRA, ectopically expressed on 293 cells (murine, UniProt Q2YFS3 32-302); assay: flow cytometry, 293 cells expressing target
T1 construct: also called mA
Protocol: as §1

[3] = target: T2, human PILRA, G78 variant, ectopically expressed on 293 cells (human, UniProt Q9UKJ1 20-303); assay: flow cytometry, 293 cells expressing target
T2 construct: the cells are labelled G78; also called hA G78 OE; hA
Protocol: as §1

[4] = target: T3, human PILRB, ectopically expressed on 293 cells (human, UniProt Q9UKJ0 20-227); assay: flow cytometry, 293 cells expressing target
T3 construct: also called hB
Protocol: as §1

[5] = target: T4, murine PILRB, ectopically expressed on 293 cells (murine, UniProt Q2YFS2 29-224); assay: flow cytometry, 293 cells expressing target
T4 construct: whole, on cells; also called mB
Protocol: as §1

[6] = target: T5, human PILRA, c-term His-Avi tag (human, UniProt Q9UKJ1 20-197, limits assumed); assay: SPR (Biacore), antibody captured, PILRA as analyte
T5 construct: not shown: C-terminal His-Avi tag
Protocol: Experiments were performed to determine the kinetics of anti-PILRA antibody binding to human […]. The assay is depicted in FIG. 6. A rabbit anti-PILRA was used as a positive control, and H1 LALAPS was used as a negative control. Human PILRA (human PILRA, c-term His-Avi tag, 0.68 mg/mi) was used as the antigen. The running buffer was HBSTE/0.5% BSA, pH 7.4, and the regeneration solution was 10 mM glycine-HCl (pH 2.1). In the assay, antibodies were captured at 10 μg/ml by immobilized anti-huFc or anti-msFc on a Biacore CM5 chip, and human PILRA flowed at 33, 100, and 300 nM. The surface was regenerated after each analyte, and all curves were double-referenced with buffer injections.

T5 sequence (Q9UKJ1 20-197 limits assumed): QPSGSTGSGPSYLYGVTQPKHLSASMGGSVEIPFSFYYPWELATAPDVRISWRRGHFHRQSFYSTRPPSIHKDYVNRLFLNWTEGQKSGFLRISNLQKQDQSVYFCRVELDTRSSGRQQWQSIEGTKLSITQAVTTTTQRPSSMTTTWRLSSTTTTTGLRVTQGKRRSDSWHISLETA
T3 sequence (Q9UKJ0 20-227): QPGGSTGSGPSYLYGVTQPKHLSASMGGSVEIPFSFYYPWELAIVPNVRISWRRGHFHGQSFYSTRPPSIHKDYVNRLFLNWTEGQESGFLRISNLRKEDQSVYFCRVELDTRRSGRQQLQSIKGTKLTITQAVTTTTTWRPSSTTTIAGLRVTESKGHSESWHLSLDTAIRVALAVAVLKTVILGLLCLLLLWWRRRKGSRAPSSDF
T1 sequence (Q2YFS3 32-302): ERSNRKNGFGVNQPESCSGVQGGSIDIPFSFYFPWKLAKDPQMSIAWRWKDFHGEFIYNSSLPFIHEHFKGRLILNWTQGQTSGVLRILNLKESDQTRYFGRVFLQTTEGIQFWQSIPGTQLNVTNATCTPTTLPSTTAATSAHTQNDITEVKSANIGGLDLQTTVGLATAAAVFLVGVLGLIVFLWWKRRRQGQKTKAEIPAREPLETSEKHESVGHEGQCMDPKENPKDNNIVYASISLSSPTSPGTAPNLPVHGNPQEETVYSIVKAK
T2 sequence (Q9UKJ1 other isoform, or with tags, fused parts or gaps mutant): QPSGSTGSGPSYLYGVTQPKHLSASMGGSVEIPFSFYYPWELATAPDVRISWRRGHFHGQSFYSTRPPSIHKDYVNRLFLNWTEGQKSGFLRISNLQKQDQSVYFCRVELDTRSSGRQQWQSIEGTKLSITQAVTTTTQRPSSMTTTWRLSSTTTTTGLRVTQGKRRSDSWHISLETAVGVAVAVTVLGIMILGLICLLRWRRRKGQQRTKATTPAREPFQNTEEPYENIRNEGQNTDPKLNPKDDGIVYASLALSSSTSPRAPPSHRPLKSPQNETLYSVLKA
T4 sequence (Q2YFS2 29-224): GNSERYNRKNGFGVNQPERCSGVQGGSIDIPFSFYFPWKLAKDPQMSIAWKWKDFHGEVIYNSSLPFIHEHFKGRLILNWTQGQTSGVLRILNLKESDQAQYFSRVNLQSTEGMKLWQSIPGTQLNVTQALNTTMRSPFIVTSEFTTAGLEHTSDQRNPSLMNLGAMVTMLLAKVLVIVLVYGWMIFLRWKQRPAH
Chain of cynomolgus PILRA, ectopically expressed on 293 cells (cynomolgus monkey) (chain, as listed by the source): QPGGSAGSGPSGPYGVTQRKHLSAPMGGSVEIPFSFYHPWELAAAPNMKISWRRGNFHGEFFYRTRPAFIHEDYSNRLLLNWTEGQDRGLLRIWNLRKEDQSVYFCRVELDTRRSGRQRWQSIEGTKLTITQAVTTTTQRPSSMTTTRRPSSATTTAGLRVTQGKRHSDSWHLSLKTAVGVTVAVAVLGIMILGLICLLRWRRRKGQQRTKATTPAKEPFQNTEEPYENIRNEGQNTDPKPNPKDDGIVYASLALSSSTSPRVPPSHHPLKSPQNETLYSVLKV

Binder	binding result [1]	binding result [2]	EC50 [3] [µg/mL]	EC50 [4] [µg/mL]	binding result [5]	binding result [4]	EC50 [1] [µg/mL]	Kd [6] [nM]	koff [6] [s⁻¹]	kon [6] [M⁻¹ s⁻¹]
B1	no binding	no binding	0.4	2.9	no binding					
B2	no binding	no binding	40.4		no binding	no binding				
B3		no binding	0.4	2.9	no binding		92			
B4		no binding	0.22	0.78	no binding		0.15			
B5	no binding	no binding	1.2		no binding	no binding				
B6			0.6	1.1			10.8	14.4	0.0014	96000
B7	no binding	no binding	0.2	5.9	no binding					
B8								86.1	0.009	100000
B9		no binding	0.4		no binding	no binding	0.6			
B10		no binding	0.8	6.2	no binding		0.8			
B11		no binding		3.1	no binding					
B12	no binding	no binding			no binding	no binding				
B13	no binding	no binding			no binding	no binding				
